# Primed or numbered codes have the meaning given here. PEG4′ = polyethylene glycol linker with 4 oxyethylene units
# B1: Proteolysis-targeting chimera (PROTAC) targeting FoxP3 (Pomalidomide-PEG4-RDFQSFRKMWPFFAM) (peptide)
# peptide: {pomalidomide-PEG4′}-RDFQSFRKMWPFFAM-OH
# notes: Conjugate of the P60 peptide with the small molecule pomalidomide; also called P-FoxP3; PROTAC for FoxP3
# Experiments:
# [1] = molecular target: T1, cereblon (E3 ubiquitin ligase); assay: SPR imaging (PlexArray HT), cereblon printed on chip; binary complex of cereblon and PF
# T1 chain: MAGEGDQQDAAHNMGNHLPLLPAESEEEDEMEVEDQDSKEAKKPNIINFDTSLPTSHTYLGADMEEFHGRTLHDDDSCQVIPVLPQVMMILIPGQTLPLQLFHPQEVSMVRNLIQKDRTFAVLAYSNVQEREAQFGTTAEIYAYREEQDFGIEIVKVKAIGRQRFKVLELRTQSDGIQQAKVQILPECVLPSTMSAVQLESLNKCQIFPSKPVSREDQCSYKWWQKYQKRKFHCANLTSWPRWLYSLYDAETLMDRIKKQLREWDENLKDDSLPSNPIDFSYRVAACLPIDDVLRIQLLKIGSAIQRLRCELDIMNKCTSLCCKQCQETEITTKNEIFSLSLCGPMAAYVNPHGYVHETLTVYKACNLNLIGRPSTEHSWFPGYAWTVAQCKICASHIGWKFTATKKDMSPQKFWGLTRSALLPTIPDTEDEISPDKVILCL
# [2] = molecular target: T1, cereblon (E3 ubiquitin ligase); assay: SPR imaging (PlexArray HT), cereblon printed on chip; ternary complex of cereblon, FoxP3 and P-FoxP3 (recombinant FoxP3 present)
binder,measurement,setting,value
B1,Kd,[1],987 nM
same,Kd,[2],434 nM

# — US20250049930A1 (CEDARS SINAI MEDICAL CENTER, published 2025)
